Changes are numbered by the printed parent chain.
B1: wildtype SIV Nef (other)
chain: MGSSNSKRQQQGLLKLWRGLRGKPGADWVLLSDPLIGQSSTVQEECGKALKKSWGKGKMTPDGRRLQEGDTFDEWDDDEEEVGFPVQPRVPLRQMTYKLAVDFSHFLKSKGGLDGIYYSERREKILNLYALNEWGIIDDWQAYSPGPGIRYPRVFGFCFKLVPVDLHEEARNCERHCLMHPAQMGEDPDGIDHGEVLVWKFDPKLAVEYRPDMFKDMHEHAKR
B2: SIV Nef M116 (other)
chain: B1 chain with L178A, M179A

Columns and labels:
Assay in all cases: cell-based or functional assay
[1] = target: M665 (CD8α SP-BCMA scFv-CD8α hinge-CD8α TM-ISD)
[2] = target: M666 (CD8α SP-BCMA scFv-CD8α hinge-CD8α TM-ISD)
[3] = target: M663 (CD8α SP-BCMA scFv-CD8α hinge-CD8α TM-ISD)

Binder	relative ISD-modified CAR positive rate (FACS), day 3, against empty vector control [1] [%]	relative ISD-modified CAR positive rate (FACS), day 3, against empty vector control [2] [%]	relative ISD-modified CAR positive rate (FACS), day 3, against empty vector control [3] [%]
B1	82.3	57	46.7
B2	70.3	56.2	50.9
